Test results from patent EP4711384A1 (WIO Bioscience Co., Ltd., dated 2026).
Where a chain is given by its changes, count along the chain named. Several values for one entry are separate records, joined by “and”; a condition that tells them apart may be missing. Equal entries are not always repeated.

T1: human IL-18R1 and IL-18RAP on IL-18 Reporter HEK 293 Cells (human, UniProt Q13478 19-541; O95256 20-599)
T1 sequence (looked up) 1: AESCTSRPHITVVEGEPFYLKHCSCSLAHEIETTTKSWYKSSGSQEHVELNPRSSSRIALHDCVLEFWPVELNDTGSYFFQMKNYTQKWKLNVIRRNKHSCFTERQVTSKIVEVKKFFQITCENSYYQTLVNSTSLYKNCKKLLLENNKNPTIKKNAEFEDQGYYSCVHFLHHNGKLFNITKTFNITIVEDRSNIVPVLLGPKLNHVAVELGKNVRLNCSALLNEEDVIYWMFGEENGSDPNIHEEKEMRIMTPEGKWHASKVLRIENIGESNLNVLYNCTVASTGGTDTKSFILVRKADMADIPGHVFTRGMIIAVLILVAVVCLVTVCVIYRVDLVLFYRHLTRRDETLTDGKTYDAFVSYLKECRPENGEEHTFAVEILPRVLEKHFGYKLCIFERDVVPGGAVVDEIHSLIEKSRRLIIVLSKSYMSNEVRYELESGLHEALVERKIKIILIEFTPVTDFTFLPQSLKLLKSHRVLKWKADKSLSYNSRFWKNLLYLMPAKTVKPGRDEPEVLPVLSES
T1 sequence (looked up) 2: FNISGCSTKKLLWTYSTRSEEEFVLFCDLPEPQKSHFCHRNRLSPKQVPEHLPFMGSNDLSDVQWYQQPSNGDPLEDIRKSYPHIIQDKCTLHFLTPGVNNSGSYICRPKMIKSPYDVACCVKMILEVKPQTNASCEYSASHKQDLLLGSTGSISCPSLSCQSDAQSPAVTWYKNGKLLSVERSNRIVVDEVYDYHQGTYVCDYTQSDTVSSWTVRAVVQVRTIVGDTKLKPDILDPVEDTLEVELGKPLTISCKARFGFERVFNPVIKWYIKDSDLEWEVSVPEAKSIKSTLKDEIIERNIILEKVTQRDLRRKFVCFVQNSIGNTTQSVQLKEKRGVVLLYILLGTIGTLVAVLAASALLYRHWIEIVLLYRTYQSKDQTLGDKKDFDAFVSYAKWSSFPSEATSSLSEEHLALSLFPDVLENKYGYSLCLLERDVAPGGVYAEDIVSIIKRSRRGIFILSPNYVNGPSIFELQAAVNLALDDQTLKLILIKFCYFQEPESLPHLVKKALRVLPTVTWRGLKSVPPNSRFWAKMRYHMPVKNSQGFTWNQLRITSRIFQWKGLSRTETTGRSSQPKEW

T2: human IL-18R1 ECD-His (human) (UniProt Q13478)
T2 sequence: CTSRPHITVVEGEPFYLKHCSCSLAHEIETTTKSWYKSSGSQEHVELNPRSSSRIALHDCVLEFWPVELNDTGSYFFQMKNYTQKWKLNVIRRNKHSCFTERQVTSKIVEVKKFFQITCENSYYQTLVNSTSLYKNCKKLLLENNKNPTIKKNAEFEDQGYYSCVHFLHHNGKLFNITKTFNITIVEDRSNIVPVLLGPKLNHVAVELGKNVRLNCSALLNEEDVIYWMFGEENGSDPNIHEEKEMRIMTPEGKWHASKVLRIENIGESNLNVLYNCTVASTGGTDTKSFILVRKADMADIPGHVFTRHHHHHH

B1: Wio-02-23 (R1-F9-GGGGS-Rap-C10) (bispecific antibody)
chain: QVQLQESGGGSVQAGETLRLSCTASGFTVHDMGWYRQAPGNECELVSTISSDGSTYYADSVKGRFTISQDNAKNTVYLQMNSLKPEDTAVYYCAADHFTGLQLAECKADFGYWGQGTQVTVSSGGGGSQVQLQESGGGSVQPGGSLRLSCAASGFTYIPAYMGWFRQAPGKERERVASISSTDGSTTYADSVKGRFTVSQDTAKNTLYLQMNSLKPEDTAMYYCAAYQFGAFRVWGQGTQVTVSS
B2: Wio-02-29 (Rap-A10-GGGGS-R1-A12) (bispecific antibody)
chain: QVQLQESGGGLVQAGGSLKLSCAASGYTYGPYCMGWFRQFPGKEREGVAAVGGDGRTWYGNSVKGRFTISQDNAKKTLYLQINALKPEDTAMYYCAADFDRTVCSDDIYDYTYRGQGTQVTVSSGGGGSQVQLQESGGGPVQAGGSLRLSCSASTTAYDNACMGWFRQAPGKEREGVASIHLRDRTYYADSVKGRFTLSRDGASKTLYLQMNSLKPEDSGTYYCASSNICNGLNLQGNTYWGQGTQVTVSS
B3: hzWio-02-23-His (bispecific antibody)
chain: EVQLVESGGGLVQPGGSLRLSCAASGFTVHDMGWYRQAPGKECELVSTISSDASTYYADSVKGRFTISRDNAKNTLYLQMNSLRAEDTAVYYCAADSFTGLQLAECKADFGYWGQGTLVTVSSGGGGSEVQLVESGGGLVQPGGSLRLSCAASGFTYIPAYMGWFRQAPGKERERVASISSTEGSTTYADSVKGRFTISQDNSKNTLYLQMNSLRPEDTAVYYCAAYQFGAFRVWGQGTLVTVSSHHHHHH
B4: hzWio-02-29 (His form) (bispecific antibody)
chain: EVQLLESGGGLVQPGGSLRLSCAASGYTYGPYCMGWFRQAPGKEREGVAAVGGDARTWYGNSVKGRFTISRDNSKNTLYLQMNSLRAEDTAVYYCAADFDRTVCSDDIYDYTYRGQGTLVTVSSGGGGSEVQLVESGGGLVQPGGSLRLSCAASGTAYDNACMGWFRQAPGKEREGVASIHLRDRTYYADSVKGRFTISRDNSKNTLYLQMNSLRAEDTAVYYCASSNICNALNLQGNTYWGQGTLVTVSSHHHHHH
B5: hzWio-02-11-His (bispecific antibody)
chain: EVQLVESGGGLVQPGGSLRLSCAASGSTFDEYDMGWYRQAPGGKCELVSTISTIDASTYYADSVKGRFTISRDNSKNTLYLQMNSLRAEDTAVYYCEADDRGTWDRGGCWGQGTLVTVSSGGGGSEVQLVESGGGLVQPGGSLRLSCAASGFTYIPAYMGWFRQAPGKERERVASISSTEGSTTYADSVKGRFTISQDNSKNTLYLQMNSLRPEDTAVYYCAAYQFGAFRVWGQGTLVTVSSHHHHHH
B6: hzWio-02-09 (His form) (bispecific antibody)
chain: EVQLVESGGGLVQPGGSLRLSCAASGSTFDEYDMGWYRQAPGGKCELVSTISTIDASTYYADSVKGRFTISRDNSKNTLYLQMNSLRAEDTAVYYCEADDRGTWDRGGCWGQGTLVTVSSGGGGSEVQLVESGGGLVQPGGSLRLSCAASGFTYIPAYMGWFRQAPGKERERVASIKTDASTTYADSVEGRFTISQDNAKNTLYLQMNSLRPEDTAVYYCAAYQFGAFRVWGQGTLVTVSSHHHHHH
B7: hzWio-02-03-His (bispecific antibody)
chain: EVQLVESGGGLVQPGGSLRLSCAASGNLYRDPCMGWFRQAPGKDREGVAAMNTGADSTFYARSVKGRFTISRDNAKNTLYLQMNSLRAEDTAVYYCAASRYCTERTYTWRYDYDYWGQGTLVTVSSGGGGSEVQLVESGGGLVQPGGSLRLSCAASGFTYIPAYMGWFRQAPGKERERVASIKTDASTTYADSVEGRFTISQDNAKNTLYLQMNSLRPEDTAVYYCAAYQFGAFRVWGQGTLVTVSSHHHHHH
B8: hzWio-02-31 (His form) (bispecific antibody)
chain: EVQLVESGGGLVQPGGSLRLSCAASGFTYIPAYMGWFRQAPGKERERVASISSTEGSTTYADSVKGRFTISQDNSKNTLYLQMNSLRPEDTAVYYCAAYQFGAFRVWGQGTLVTVSSGGGGSEVQLVESGGGLVQPGGSLRLSCAASGFTVHDMGWYRQAPGKECELVSTISSDASTYYADSVKGRFTISRDNAKNTLYLQMNSLRAEDTAVYYCAADSFTGLQLAECKADFGYWGQGTLVTVSSHHHHHH
B9: hzWio-02-44 (His form) (bispecific antibody)
chain: EVQLLESGGGLVQPGGSLRLSCAASGYTYGPYCMGWFRQAPGKEREGVAAVGGDARTWYGNSVKGRFTISRDNSKNTLYLQMNSLRAEDTAVYYCAADFDRTVCSDDIYDYTYRGQGTLVTVSSGGGGSQVQLQESGGGSVQAGGSLRLSCVASGTTMSMNYMAWFRQAPGKEREGVASIFRSTHYADSVKGRFTIAEDSAKNTVYLQMNSLKPEDTAVYYCAAGRTKPYLTPLAESQYNYWGQGIQVTVSSHHHHHH
B10: hzWio-02-30 (His form) (bispecific antibody)
chain: EVQLVESGGGLVQPGGSLRLSCAASGFTYIPAYMGWFRQAPGKERERVASISSTEGSTTYADSVKGRFTISQDNSKNTLYLQMNSLRPEDTAVYYCAAYQFGAFRVWGQGTLVTVSSGGGGSEVQLVESGGGLVQPGGSLRLSCAASGSTFDEYDMGWYRQAPGGKCELVSTISTIDASTYYADSVKGRFTISRDNSKNTLYLQMNSLRAEDTAVYYCEADDRGTWDRGGCWGQGTLVTVSSHHHHHH
B11: hzWio-02-01-His (bispecific antibody)
chain: EVQLVESGGGLVQPGGSLRLSCAASGTAYDNACMGWFRQAPGKEREGVASIHLRDRTYYADSVKGRFTISRDNSKNTLYLQMNSLRAEDTAVYYCASSNICNALNLQGNTYWGQGTLVTVSSGGGGSEVQLLESGGGLVQPGGSLRLSCAASGYTYGPYCMGWFRQAPGKEREGVAAVGGDARTWYGNSVKGRFTISRDNSKNTLYLQMNSLRAEDTAVYYCAADFDRTVCSDDIYDYTYRGQGTLVTVSSHHHHHH
B12: hzWio-02-05-His (bispecific antibody)
chain: EVQLVESGGGLVQPGGSLRLSCAASGNLYRDPCMGWFRQAPGKDREGVAAMNTGADSTFYARSVKGRFTISRDNAKNTLYLQMNSLRAEDTAVYYCAASRYCTERTYTWRYDYDYWGQGTLVTVSSGGGGSEVQLVESGGGLVQPGGSLRLSCAASGFTYIPAYMGWFRQAPGKERERVASISSTEGSTTYADSVKGRFTISQDNSKNTLYLQMNSLRPEDTAVYYCAAYQFGAFRVWGQGTLVTVSSHHHHHH
B13: hzWio-02-01-Hm35 (bispecific antibody)
chain: B11 chain with T110H
B14: hzWio-02-01-Hm31 (bispecific antibody)
chain: B11 chain with L106H
B15: hzWio-02-01-Hm32 (bispecific antibody)
chain: B11 chain with Q107H
B16: hzWio-02-01-Hm34 (bispecific antibody)
chain: B11 chain with N109H
B17: hzWio-02-01-Hm33 (bispecific antibody)
chain: B11 chain with G108H

Target: T1, human IL-18R1 and IL-18RAP on IL-18 …
Experiment: cell-based or functional assay

| SEAP reporter OD, supernatant 5X | SEAP reporter OD, supernatant 25X | Binder |
| --- | --- | --- |
| 1.78 | 1.9 | B1 |
| 1.51 | 1.23 | B2 |

Target: T1, human IL-18R1 and IL-18RAP on IL-18 …
Experiment: cell-based or functional assay
Remark: another data set of the same source

| EC50 [ng/mL] | Top630nm | Binder |
| --- | --- | --- |
| 0.13 | 1.95 | B3 |
| 0.503 | 1.61 | B4 |
| 0.101 | 1.58 | B5 |
| 0.668 | 1.88 | B6 |
| 0.394 | 1.82 | B7 |
| 2.58 | 0.779 | B8 |
| 2.66 | 0.912 | B9 |
| 2.74 | 0.837 | B10 |
| 0.417 | 1.93 | B11 |
| 0.201 | 1.72 | B12 |

Target: T1, human IL-18R1 and IL-18RAP on IL-18 …
Experiment: cell-based or functional assay
Remark: another data set of the same source

| EC50 [ng/mL] | Top530nm | Binder |
| --- | --- | --- |
| 2.3 | 1.05 | B11 |
| 6.99 | 1.18 | B13 |
| 7.75 | 1.05 | B14 |
| 10.9 | 1.09 | B15 |
| 12.9 | 1 | B16 |
| 19.5 | 1.1 | B17 |

Target: T2, human IL-18R1 ECD-His (human)
Experiment: sandwich ELISA, IL-18RAP ECD-hFc detection

| ELISA OD | Binder |
| --- | --- |
| 1.73 and 1.83 | B1 |
| 2.05 and 2.04 | B2 |
